In patent US20260242478A1 (published 2026):
Where no end group is shown, it is not given here.

Experiments:
PSMA Fab [1] = molecular target: T1, PSMA Fab; experiment: phage ELISA; biotinylated PSMA Fab on neutravidin plate, clonal phage supernatant, anti-M13 HRP detection, blocking buffer alone
T1 construct: also called Anti-PSMA Fab; 006 PSMA Fab
Method: (§1) Clonal phage were harvested as crude supernatants and screened via standard ELISAs. […] Prior to the addition of clonal phage. wells were incubated with blocking buffer and PSMA antigen or blocking buffer alone. Without washing or aspirating, clonal phage supernatants were then added to the wells and incubated for a short time. Wells were then washed followed by detection of bound phage using a horse radish conjugated anti-M13 antibody.

PSMA Fab [2] = molecular target: T1, PSMA Fab; experiment: phage ELISA; biotinylated PSMA Fab on neutravidin plate pre-incubated with PSMA antigen as competitor, anti-M13 HRP detection;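 also: crude clonal phage supernatants tested, compared against control wells pre-incubated with blocking buffer only, without PSMA antigen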
Method: as §1

PSMA Fab [3] = molecular target: T2, PSMA Fab (biotinylated (site not stated)); experiment: clonal phage ELISA; biotinylated PSMA Fab on neutravidin plate, wells pre-incubated with PSMA antigen as competitor, anti-M13-HRP detection
T2 construct: also called Anti-PSMA Fab; 006 PSMA Fab

PSMA Fab [4] = molecular target: T2, PSMA Fab; experiment: clonal phage ELISA; biotinylated PSMA Fab on neutravidin plate, blocking buffer alone, anti-M13-HRP detection;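 also: crude clonal phage supernatants added without washing to wells preincubated with PSMA antigen or with blocking buffer alone, briefly incubated, then washed before bound phage detection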
Method: as §1

PSMA Fab [5] = molecular target: T3, PSMA Fab; experiment: clonal phage ELISA; biotinylated PSMA Fab on neutravidin plate; anti-M13-HRP detection; no PSMA antigen
T3 construct: also called Anti-PSMA Fab; 006 PSMA Fab
Method: as §1

PSMA Fab [6] = molecular target: T3, PSMA Fab; experiment: clonal phage ELISA; biotinylated PSMA Fab on neutravidin plate; wells pre-incubated with PSMA antigen as competitor; anti-M13-HRP detection
Method: as §1

PSMA Fab [7] = molecular target: T4, PSMA Fab; experiment: clonal phage ELISA; biotinylated PSMA Fab on neutravidin plate, anti-M13 HRP detection
T4 construct: also called Anti-PSMA Fab; 006 PSMA Fab
Method: as §1

PSMA Fab [8] = molecular target: T4, PSMA Fab; experiment: clonal phage ELISA on captured PSMA Fab; wells pre-incubated with PSMA antigen as competitor
Method: as §1

Row | Binder | Phage binding ELISA signal, Anti-PSMA Fab (PSMA Fab [3]) | Phage binding ELISA signal, Anti-PSMA Fab (PSMA Fab [4]) | Phage binding ELISA signal, Anti-PSMA Fab (PSMA Fab [5]) | Phage binding ELISA signal, Anti-PSMA Fab with PSMA antigen (PSMA Fab [6]) | also measured
1 | QVQWCIPPWMCLED (Peptide-180 library clone, tested as clonal phage supernatant) [Phage-2372] |  |  |  |  | Phage binding ELISA signal, Anti-PSMA Fab (PSMA Fab [1]): 1.4; Phage binding ELISA signal, Anti-PSMA Fab in the presence of PSMA antigen (PSMA Fab [2]): 0.0887
2 | NVIRCEPMWMCYPS (cysteine pairing not given here; also: displayed on bacteriophage as fusion to pIII) [Phage-2678] | 0.0918 | 0.874 |  |  | 
3 | VDKWCIPSWMCEFY (Peptide-180 library clone, tested as clonal phage supernatant) [Phage-2371] |  |  |  |  | Phage binding ELISA signal, Anti-PSMA Fab (PSMA Fab [1]): 1.4; Phage binding ELISA signal, Anti-PSMA Fab in the presence of PSMA antigen (PSMA Fab [2]): 0.0767
4 | GEKWCIPSWMCVAV [Phage-2456] |  |  | 1.27 | 0.0549 | 
5 | LEKWCIPSWMCSTL (Peptide-180 library clone, tested as clonal phage supernatant) [Phage-2370] |  |  |  |  | Phage binding ELISA signal, Anti-PSMA Fab (PSMA Fab [1]): 1.4; Phage binding ELISA signal, Anti-PSMA Fab in the presence of PSMA antigen (PSMA Fab [2]): 0.0829
6 | VNIRCEPAWMCMGF (cysteine pairing not given here; also: fused to phage pIII, linker not given here, Clonal phage of the Peptide-180 library; not shown: pIII filament protein of the display bacteriophage) [Phage-2850] |  |  |  |  | Phage binding ELISA signal, Anti-PSMA Fab (PSMA Fab [7]): 2.46; Phage binding ELISA signal (Anti-PSMA Fab, with competitor) (PSMA Fab [8]): 0.108
7 | AGHWCIPMWMCQED [Phage-2679] | 0.0526 | 0.874 |  |  | 
8 | VHIMCKPAWMCLGF (cysteine pairing not given here; also: fused to pIII of display bacteriophage, linker and sequence not given here, Clonal phage of the Peptide-180 library; the cell for position 10 (c11) is missing in the printed row; not shown: pIII filament protein of the display bacteriophage) [Phage-2854] |  |  |  |  | Phage binding ELISA signal, Anti-PSMA Fab (PSMA Fab [7]): 2.44; Phage binding ELISA signal (Anti-PSMA Fab, with competitor) (PSMA Fab [8]): 0.246
9 | EMKWCTPPWMCTEL [Phage-2460] |  |  | 1.26 | 0.0656 | 
10 | SGNWCTPSWMCTGF [Phage-2677] | 0.062 | 0.874 |  |  | 
11 | VTNWCIPEWMCNGN [Phage-2667] | 0.0615 | 0.894 |  |  | 
12 | WEMKCIPEWMCRGF (cysteine pairing not given here; also: fused to pIII of display bacteriophage, linker and sequence not given here, Clonal phage of the Peptide-180 library; not shown: pIII filament protein of the display bacteriophage) [Phage-2855] |  |  |  |  | Phage binding ELISA signal, Anti-PSMA Fab (PSMA Fab [7]): 2.44; Phage binding ELISA signal (Anti-PSMA Fab, with competitor) (PSMA Fab [8]): 0.139
13 | VETWCIPHWMCAGF (cysteine pairing not given here; also: displayed as fusion to phage pIII) [Phage-2453] |  |  | 1.27 | 0.0685 | 
14 | VMKWCTPQWMCEHL [Phage-2465] |  |  | 1.25 | 0.068 | 
15 | ITKLCTPPWMCMDV [Phage-2668] | 0.0571 | 0.886 |  |  | 
16 | DMRLCVPEWMCLGL (cysteine pairing not given here; also: displayed on phage as fusion to pIII, linker and sequence not given here, Clonal phage of the Peptide-180 library; not shown: pIII filament protein of the display bacteriophage) [Phage-2851] |  |  |  |  | Phage binding ELISA signal, Anti-PSMA Fab (PSMA Fab [7]): 2.46; Phage binding ELISA signal (Anti-PSMA Fab, with competitor) (PSMA Fab [8]): 0.0789
17 | SVHECRPLWMCQGF [Phage-2455] |  |  | 1.27 | 0.073 | 
18 | VMPLCKPAWMCGGF (cysteine pairing not given here; also: fused to pIII of display bacteriophage, linker and sequence not given here, Clonal phage of the Peptide-180 library; not shown: pIII filament protein of the display bacteriophage) [Phage-2852] |  |  |  |  | Phage binding ELISA signal, Anti-PSMA Fab (PSMA Fab [7]): 2.46; Phage binding ELISA signal (Anti-PSMA Fab, with competitor) (PSMA Fab [8]): 0.134
19 | IAKWCTPPWMCADN (cysteine pairing not given here; also: displayed on bacteriophage as fusion to pIII) [Phage-2676] | 0.079 | 0.876 |  |  | 

Row | Binder | Phage binding ELISA signal, Anti-PSMA Fab (PSMA Fab [3]) | Phage binding ELISA signal, Anti-PSMA Fab (PSMA Fab [4]) | Phage binding ELISA signal, Anti-PSMA Fab (PSMA Fab [5]) | Phage binding ELISA signal, Anti-PSMA Fab with PSMA antigen (PSMA Fab [6]) | also measured
20 | EHKWCIPDWMCWED [Phage-2675] | 0.0562 | 0.876 |  |  | 
21 | DEIWCIPRWMCDGI [Phage-2462] |  |  | 1.25 | 0.0834 | 
22 | TQMWCIPFWMCEVQ [Phage-2459] |  |  | 1.27 | 0.0885 | 
23 | WDNWCTPSWMCSEL [Phage-2671] | 0.0853 | 0.883 |  |  | 
24 | VEILCKPAWMCRLD [Phage-2457] |  |  | 1.27 | 0.062 | 
25 | SVKLCIPDWMCVSE [Phage-2461] |  |  | 1.26 | 0.203 | 
26 | WDHLCKPRWMCDGI (cysteine pairing not given here; also: displayed as fusion to phage pIII) [Phage-2451] |  |  | 1.28 | 0.0744 | 
27 | MLPLCVPAWMCSGF (cysteine pairing not given here; also: fused to pIII of display bacteriophage, linker and sequence not given here, Clonal phage of the Peptide-180 library; not shown: pIII filament protein of the display bacteriophage) [Phage-2853] |  |  |  |  | Phage binding ELISA signal, Anti-PSMA Fab (PSMA Fab [7]): 2.44; Phage binding ELISA signal (Anti-PSMA Fab, with competitor) (PSMA Fab [8]): 0.12
28 | DGKWCIPEWMCAQQ (cysteine pairing not given here; also: displayed as fusion to phage pIII) [Phage-2463] |  |  | 1.25 | 0.0837 | 
29 | LDMLCIPAWMCEPR [Phage-2674] | 0.0925 | 0.877 |  |  | 
30 | EEKWCIPYWMCEAV [Phage-2669] | 0.0691 | 0.885 |  |  | 
31 | AGKLCIPNWMCEEQ [Phage-2670] | 0.0913 | 0.884 |  |  | 
32 | PVKLCKPDWMCWVS [Phage-2464] |  |  | 1.25 | 0.105 | 
33 | DWKWCTPAWMCTQT [Phage-2673] | 0.0698 | 0.877 |  |  | 
34 | PPKWCIPAWMCAGM (cysteine pairing not given here; also: displayed on bacteriophage as fusion to pIII) [Phage-2666] | 0.0794 | 0.895 |  |  | 
35 | QEKWCIPEWMCSVR [Phage-2672] | 0.0823 | 0.879 |  |  | 
36 | DTNWCRPAWMCAFA (cysteine pairing not given here; also: displayed as fusion to phage pIII) [Phage-2458] |  |  | 1.27 | 0.0649 | 
37 | SVKMCIPEWMCENI [Phage-2452] |  |  | 1.28 | 0.0646 | 
